Biological target: CH-296 retronectin fragment (UniProt P02751)
Assay: cell-based or functional assay

Sequence of UniProt P02751 (P02751 1361-2107): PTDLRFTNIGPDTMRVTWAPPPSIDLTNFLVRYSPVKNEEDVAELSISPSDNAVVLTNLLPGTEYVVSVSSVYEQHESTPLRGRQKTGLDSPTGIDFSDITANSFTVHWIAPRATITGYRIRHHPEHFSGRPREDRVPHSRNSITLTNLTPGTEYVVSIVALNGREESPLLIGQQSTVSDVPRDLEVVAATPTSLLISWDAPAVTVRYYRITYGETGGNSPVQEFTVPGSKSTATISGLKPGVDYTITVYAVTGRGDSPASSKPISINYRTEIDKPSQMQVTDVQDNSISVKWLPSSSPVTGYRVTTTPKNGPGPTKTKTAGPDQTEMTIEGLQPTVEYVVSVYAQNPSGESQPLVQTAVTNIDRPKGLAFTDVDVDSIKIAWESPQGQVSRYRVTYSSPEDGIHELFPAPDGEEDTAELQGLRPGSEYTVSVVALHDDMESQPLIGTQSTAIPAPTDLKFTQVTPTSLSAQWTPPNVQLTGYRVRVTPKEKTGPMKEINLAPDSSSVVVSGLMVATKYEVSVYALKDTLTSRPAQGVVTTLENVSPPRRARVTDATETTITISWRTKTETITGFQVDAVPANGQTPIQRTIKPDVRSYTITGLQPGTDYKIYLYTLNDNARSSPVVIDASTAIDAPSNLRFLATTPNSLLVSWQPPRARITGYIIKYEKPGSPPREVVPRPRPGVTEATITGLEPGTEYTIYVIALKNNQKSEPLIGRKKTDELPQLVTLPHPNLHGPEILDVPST

Which transduction efficiency of human CD34+ cells on retronectin-coated plates (% GFP+ cells) does the source give for RD114/TR chimeric glycoprotein here?
Its transduction efficiency of human CD34+ cells on retronectin-coated plates (% GFP+ cells) is 10 fold.
